{"source": "patent US20220112296A1", "target": "biotinylated CD3 epsilon epitope peptide", "assay": "SPR Biacore, method of Ref. Ex. 11", "data": [{"binder": "CE115HA000 (antibody, V domains shown) VH: QVQLVESGGGVVQPGRSLRLSCAASGFTFSNAWMHWVRQAPGKGLEWVAQIKAKSNNYATYYAESVKGRFTISRDDSKNSLYLQMNSLKTEDTAVYYCRYVHYGAYYGVDAWGQGTTVTVSS VL: DIVMTQSPLSLPVTPGEPASISCRSSQSLVHSNRNTYLHWYQQKPGQAPRLLIYKVSNRFSGVPDRFSGSGSGTDFTLKISRVEAEDVGVYYCGQGTQVPYTFGQGTKLEIK", "values": [{"measurement": "Kd", "result": 110, "unit": "nM"}]}]}
